The record followed here is paper PMC11963547.

As a reminder, the stoichiometry N is the number of molecules, sites or subunits per partner or assembly.

The experiment has as its target penicillin-binding protein 2a (S. aureus (endogenous in strain USA300)). The experiment can be described thus: cross-linking + native gel or EMSA. A general note: In EMSA bound probe runs differently from free probe, usually more slowly.

“penicillin-binding protein 2a (natural protein)”: the stoichiometry N came to 3.
